# Laboratory results taken from publication PMC10206564.
# Biological target: His954 (UniProt position 954, […])
# Assay: NMR
# Details: 30 mM NaCl plus 20 mM sodium phosphate, Folded post-fusion six-helix bundle (6HB) state, 0.15 mM protein, no lipid
substance,measurement,value
Spike glycoprotein S2 HR1-HR2 fusion core ('Core') Q954H variant (Severe acute respiratory syndrome coronavirus 2 (SARS-CoV-2); Q954H),pKa,6.40
